Assay results: the nanobody polyreactivity screen of Harvey et al. (2022)

Assay: yeast display, Sf9 membrane polyspecificity reagent, FACS + sequencing; frameworks hold sequencing errors
Procedure, shortened: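 Sorting gates, low and high (top ~1%), were placed on anti-HA fluorescence to track expression and on streptavidin fluorescence to track reagent binding. A clone's polyreactivity label is taken from the gate it came out of. The reagent was 10% biotinylated, detergent-solubilized Sf9 membrane, applied for 1 hour at 4 °C to galactose-induced yeast display cells.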

Row | Sequence | polyreactivity (PSR sort gate)
1 | QVQLVESGGGLVQAGGSLRLSCAASGFTFEFNVMGWYRQAPGKERELVASIRWGSTSYADSVKGRFTISRDNAKNTVYLQMNSLKPEDTAVYYCAADRSTGLGDDDYWGQGTQVTVSS | low polyreactivity
2 | QVQLVESGGGLVQAGGSLRLSCAASGFTFEGYAMGWYRQAPGKERDLVAAISSNGGRTYYADSVKGRFTISRDNAKNPVYLQMNSLKPEDTAVYYCNADGYGDYSFLKYRFEYDYWGQGTQVTVSS | low polyreactivity
3 | QVQLVESGGGLVQAGGSLRLSCAASGFTFEKYAMGWYRQAPGHERELVASISWSGGRTRYADSVKGRFTISRDNAKNTVYLQMNSLTPEDTAVDYCAASYRYFGRSTVRYDYWGQGTQVTVSS | high polyreactivity
4 | QVQLVESGGGLVQAGGSLRLSCAASGFTFEKYAMGWYRQAPGKERELVAAITQSAGSTYADSVKGRFTISRDNAKNTVYLQMNSLKPVDTAVYYCAARYRYPYYARYGYWGQGTQVTVSS | high polyreactivity
5 | QVQLVESGGGLVQAGGSLRLSCAASGFTFEKYVMGWYIQAPGKETEFVAAITRSGGRTYYADSVKGRFTISRDNAKNTVYLQMNSLKPEDTAVYSCNAVTSWAGSLDYWGQGTQVTVSS | high polyreactivity
6 | QVQLVESGGGLVQAGGSLRLSCAASGFTFERNTMGWYRQAPGKERELVATITRRGTSTYYADSVKGRFTISRDNAKNTVYLQMNSLKPEDTAVYYCARGQYSHRSQAGMDYWGQGTQVTVSS | high polyreactivity
7 | QVQLVESGGGLVQAGGSLRLSCAASGFTFERYAMGWYRQAPGKERELVAAIDWRGVNTYYADSVKGRFTISRDNAKNTVYLQMNSLKPEDTAVYYCNARAYGRYYWGQGTQVTVSS | high polyreactivity
8 | QVQLVESGGGLVQAGGSLRLSCAASGFTFESNAIGWYRQAPGKERELVAAISSSGGSTYYADSVKGRFTISRDNAKNTVYLQMNSLKPEDTAVYYCNAYSLYYGGYDYWGQGTQVTVSS | high polyreactivity
9 | QVQLVESGGGLVQAGGSLRLSCAASGFTFESYAMGWYRQAPGKERELVAAISWNGGSSYYADSVKGRFTISRDNAKNTVYLQMNSLKPEDTAVYYCAARGRAPRFRRIGYDYWGQGTQVSVSS | high polyreactivity
10 | QVQLVESGGGLVQAGGSLRLSCAASGFTFESYAMGWYRQAPGKERELVAAISWNGGSTYYADSVKGRFTISRDNAKNTVYLQMNSLKPEDTAVYYCAARGRAPRFRRIGYDYWGQGTQVTVSS | high polyreactivity
11 | QVQLVESGGGLVQAGGSLRLSCAASGFTFEYNAMGGYRQDPGKERELVAAITTTGSTYYADSVKGRFTISRDNAKNTVYLQMNSLKPEDTAVYYCAADPVWRGYSYQFDYWGQGTQVTVSS | low polyreactivity
12 | QVQLVESGGGLVQAGGSLRLSCAASGFTFEYYAMGWYRQAPWKERELVATITWNGGSTYYADSVKGRFTISRDNAKNTVYFQMNSLKPEDTAVYYCAADEQAYYVRRFDYWGQGTQVTVSS | low polyreactivity
13 | QVQLVESGGGLVQAGGSLRLSCAASGFTFFINGMGWYRQAPGKERELVAAIRSSGASTYDADSVKGRFTISRDNAKNTVYLQMNSLQPEDTAVYYCAVPLGAVGGPVDYWGQGTQVTVSS | low polyreactivity
14 | QVQLVESGGGLVQAGGSLRLSCAASGFTFFKYAMGWYRQAPGKERELVAAITRNGGRTYYADSVKGRFTISRDNAKNTVYLQMNSLKPEDTAVYYCAAVQYRYGGMDYWGQGTQVTVSS | high polyreactivity
15 | QVQLVESGGGLVQAGGSLRLSCAASGFTFFQYAKGWYRQAPGKERELVAAISARGGRTYYADSVKGRFTISRDNAKNTVYLQMNSLKPEDTAVYYCAKRTRTIQGHYDYWGQGTQVTVSS | high polyreactivity
16 | QVQLVESGGGLVQAGGSLRLSCAASGFTFFRNAMGWYRQAPGKEMELVAAISGSGGSTYYADSVKGRFTISRDNAKNTVYLQINSLKPEDTAVYYCATYSYPAKVPEAYNYWGQGSQVTVSS | low polyreactivity
